Assay [1] has as its target Antigen 2. Description: ELISA, supernatant 1 TO 4, Plate 2 (Antigen 2), column 6, BLANK 0.06. (In general: ELISA stands for enzyme-linked immunosorbent assay.)
Assay [2] addresses Antigen 1. Description: ELISA, supernatant 1 TO 1024, Plate 1 (Antigen 1), column 6, BLANK 0.07.
Assay [3] has as its target Antigen 2. Description: ELISA, supernatant 1 TO 4096, Plate 2 (Antigen 2), column 6, BLANK 0.06.
Assay [4] addresses Antigen 2. Description: ELISA, supernatant 1 TO 256, Plate 2 (Antigen 2), column 6, BLANK 0.06.
In assay [5] the target is Antigen 2. Description: ELISA, supernatant 1 TO 16, Plate 2 (Antigen 2), column 6, BLANK 0.06.
In assay [6] the target is Antigen 1. Description: ELISA, supernatant 1 TO 256, Plate 1 (Antigen 1), column 6, BLANK 0.07.
The target of assay [7] is Antigen 1. Description: ELISA, supernatant UNDILUTED, Plate 1 (Antigen 1), column 6, BLANK 0.07.
The target in assay [8] is Antigen 1. Description: ELISA, supernatant 1 TO 4, Plate 1 (Antigen 1), column 6, BLANK 0.07.
Assay [9] has as its target Antigen 2. Description: ELISA, supernatant 1 TO 1024, Plate 2 (Antigen 2), column 6, BLANK 0.06.
Assay [10] addresses Antigen 2. Description: ELISA, supernatant 1 TO 64, Plate 2 (Antigen 2), column 6, BLANK 0.06.
The target of assay [11] is Antigen 1. Description: ELISA, supernatant 1 TO 4096, Plate 1 (Antigen 1), column 6, BLANK 0.07.
Assay [12] deals with Antigen 1. Description: ELISA, supernatant 1 TO 64, Plate 1 (Antigen 1), column 6, BLANK 0.07.
Assay [13] deals with Antigen 1. Description: ELISA, supernatant 1 TO 16, Plate 1 (Antigen 1), column 6, BLANK 0.07.
Assay [14] has as its target Antigen 2. Description: ELISA, supernatant UNDILUTED, Plate 2 (Antigen 2), column 6, BLANK 0.06.

B1: Heavy Chain Construct 3 with Light Chain Construct 2 (VH1-VH2/VL2) (antibody)
heavy: QSVEESGGRLVTPGTPLTLTCTVSGFSLNTNAIRWVRQAPGKGLEWIGAIDASGNTYYASWAKGRFTISKTSTTVDLKITSPTTEDTATYFCNRFNTANIWGPGTLVTVSSGQPKAPSVFPLAPCCGDTPSSTVTLGCLVKGYLPEPVTVTWNSGTLTNGVRTFPSVRQSSGLYSLSSVVSVTSSSQPVTCNVAHPATNTKVDKTVAPSTCSKPMCPPPELLGGRPQPQPQPQPQPQPQPQPQPQPQPQPQPQPQPQSRQSLEESGGRLVSPGTPLTLTCTASGFSLSSNAMGWVRQAPGEGLEYIGIIRPGGSTYYASWAKGRFTISKTSSTTVDLKMTSLTTEDTATYFCARAWDIWGPGTLVTVSLGQPKAPSVFPLAPCCGDTPSSTVTLGCLVKGYLPEPVTVTWNSGTLTNGVRTFPSVRQSSGLYSLSSVVSVTSSSQPVTCNVAHPATNTKVDKTVAPSTCSKPTCPPPELLGGPSVFIFPPKPKDTLMISRTPEVTCVVVDVSQDDPEVQFTWYINNEQVRTARPPLREQQFNSTIRVVSTLPIAHQDWLRGKEFKCKVHNKALPAPIEKTISKARGQPLEPKVYTMGPPREELSSRSVSLACMINGFYPSDISVEWEKNGKAEDNYKTTPAVLDSDGSYFLYSKLSVPTSEWQRGDVFTCSVMHEALHNHYTQKSISRSPGK
light: AFELTQTPSSVEAAVGGTVTIRCQASQSISNQLSWYQQKPGQPPKRLIYRASTLASGVPARFKGSGSGTAFTLTISDLECADGATYYCQSFYYTDVIDYNAFGGGTEVVVTGDPVAPTVLIFPPAADQVATGTVTIVCVANKYFPDVTVTWEVDGTTQTTGIENSKTPQNSADCTYNLSSTLTLTSTQYNSHKEYTCKVTQGTTSVVQSFNRGDC
Turning to B1, the ELISA plate reading with Antigen 2 [1] was determined as 1.4; in the assay with Antigen 1 [2], 0.06; with Antigen 2 [3], 0.06; with Antigen 2 [4], 0.11; with Antigen 2 [5] it was 0.67; with Antigen 1 [6] it was 0.06. For the same molecule, the ELISA plate reading with Antigen 1 [7] was 0.22; with Antigen 1 [8], 0.11; with Antigen 2 [9] it was 0.08; in the assay with Antigen 2 [10], 0.26; with Antigen 1 [11], 0.06; with Antigen 1 [12], 0.09. Further, the figures for the ELISA plate reading with Antigen 1 [13] and in the assay with Antigen 2 [14] were 0.07 and 2.04, respectively.

The values are drawn from US20200157190A1.
